Results on one molecule are retold here after publication PMC11339910 (Journal of molecular biology, 2024).

For the assay, the target named is IL-13 (UniProt P35225). Nature of the assay: SPR. A general note: Surface plasmon resonance follows binding to a sensor surface in real time, without labels.
IL-13, sequence (P35225 35-143): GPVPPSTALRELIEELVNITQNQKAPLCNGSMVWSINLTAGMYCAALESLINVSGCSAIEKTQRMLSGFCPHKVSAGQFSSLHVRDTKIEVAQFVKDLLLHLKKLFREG

B1: Fab region of tralokinumab (Fab, V domains shown)
VH: QVQLVQSGAEVKKPGASVKVSCKASGYTFTNYGLSWVRQAPGQGLEWMGWISANNGDTNYGQEFQGRVTMTTDTSTSTAYMELRSLRSDDTAVYYCARDSSSSWARWFFDLWGRGTLVTVSS
VL: SYVLTQPPSVSVAPGKTARITCGGNIIGSKLVHWYQQKPGQAPVLVIYDDGDRPSGIPERFSGSNSGNTATLTISRVEAGDEADYYCQVWDTGSDPVVFGGGTKLTVL
Regarding B1, the binding result is on record as “binds”.
